Assay results published in patent US20190016812A1 (AbbVie / Abbott, published 2019).

B1: SC113.15 (antibody, mouse IgG1, V domains shown)
VH: QVQLQQSGAELAKPGASVKMSCKASGYTFTTFWMHWLKQRPGQGLEWIGYINPRTYFTYYNQKFEDQATLTADESSSTAYMQLNSLTSEDSAVYYCATHHGGFDVWGAGTTVTVSS
VL: DVVMTQTPLSLPVSLGDQASISCRSSQSLVHSNGDTYLHWYLQKPGQSPKLLIYKVSNRFSGVPDRFSGSRSGTDFTLKISRVEAEDLGIYFCSQSTHVPYTFGGGTKLEIK
notes: mouse IgG1
B2: SC113.14 (antibody, mouse IgG2a, V domains shown)
VH: QVQLQQSGAELVKPGASVKLSCKASGYTFTEYTIHWVKQKSGQGLEWIGWFYPGSGSLKFNEKFKDKATLTADISSNTVYMELSRLTSEDSAVYFCARHEDFFYFDSYTMDYWGQGTSVTVSS
VL: QIVLTQSPAIMSASPGEKVTLTCSASSSVSSSYLYWYQQKPGSSPKLWIYSTSKLSSGVPARFSGSGSGTSYSLTISSMEAEDAASYFCHQWSTYPWTFGGGTKLEIK
notes: mouse IgG2a

Key:
[1] = molecular target: T1, hTNFSF9-His (monomeric human TNFSF9 extracellular domain with 9x-Histidine tag) (human, UniProt P41273 50-254); assay: SPR (Biacore)
T1 construct: also called hTNFSF9-His protein; monomeric hTNFSF9-His antigen
T1 sequence (P41273 other isoform, or with tags, fused parts or gaps): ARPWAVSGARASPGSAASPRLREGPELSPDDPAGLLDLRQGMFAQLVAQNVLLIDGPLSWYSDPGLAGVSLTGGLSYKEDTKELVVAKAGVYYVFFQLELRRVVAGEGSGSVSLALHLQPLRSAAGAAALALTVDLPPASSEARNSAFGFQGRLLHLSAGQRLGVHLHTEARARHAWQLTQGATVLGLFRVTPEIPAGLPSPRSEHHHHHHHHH

[2] = molecular target: T2, cynomolgus TNFSF9 (cTNFSF9) protein, soluble recombinant (cynomolgus); assay: SPR (Biacore)
T2 construct: extracellular domain; also called cynomolgus TNFSF9 protein

[3] = molecular target: T3, human TNFSF9 (R&D Systems; #2295-4L-025/CF) (human, UniProt P41273 71-254, limits assumed); assay: MSD ELISA: TNFSF9 + 1 ug/mL antibody, binding to coated TNFRSF9
T3 construct: also called TNFSF9 (ligand); TNFSF9 ligand
T3 sequence (P41273 71-254 limits assumed): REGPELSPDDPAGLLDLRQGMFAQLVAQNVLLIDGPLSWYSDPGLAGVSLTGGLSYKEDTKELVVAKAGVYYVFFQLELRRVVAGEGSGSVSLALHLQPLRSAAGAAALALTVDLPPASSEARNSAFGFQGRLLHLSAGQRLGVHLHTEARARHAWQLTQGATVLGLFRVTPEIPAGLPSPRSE

[4] = molecular target: human TNFSF9 (hTNFSF9), full length, overexpressed on HEK293T cells (human, UniProt P41273 1-254); assay: cell-based or functional assay
[5] = molecular target: cynomolgus TNFSF9 (cTNFSF9), full length, overexpressed on HEK293T cells (cynomolgus); assay: cell-based or functional assay

Binder | Kd [1] [nM] | Kd [2] [nM] | % inhibition of ligand receptor interaction [3] [%] | % live cells, Fab-saporin killing, 250 pM antibody [4] [%] | % live cells, Fab-saporin killing, 250 pM antibody [5] [%]
B1 | 5 | 11 | 42 | 20.2 | 107
B2 | 3 | 7 | -34 | 10.2 | 11
